{
  "source": "paper PMC5193468",
  "binders": {"B1": {"name": "miR-363 19-46 (structured_RNA)", "RNA": "GAUGCAAUUUUGAUGAGUAUCAUAGGAG"}, "B2": {"name": "let-7g 29-57 (structured_RNA)", "RNA": "CGGGUCUAUGAUACCACCCGGUACAGGAG"}},
  "key": {"His-MBP-Lin28TT [1]": {"biological_target": "T1, His-MBP-Lin28TT (Homo sapiens, UniProt Q9H9Z2 32-187)", "T1 sequence": "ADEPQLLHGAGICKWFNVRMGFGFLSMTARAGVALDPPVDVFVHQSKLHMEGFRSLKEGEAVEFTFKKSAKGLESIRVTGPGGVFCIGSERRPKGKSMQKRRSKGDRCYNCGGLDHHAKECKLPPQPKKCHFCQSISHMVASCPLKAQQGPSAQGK", "test": "fluorescence anisotropy; 100 mM NaCl; 50 uM ZnCl2; FA: 20 nM 5'-fluorescein RNA, 20 mM Tris-HCl pH 7.5, 50-750 mM NaCl (100 mM for the main miR-363 Kd), 10 mM beta-mercaptoethanol, 50 uM ZnCl2, 0.01% Tween 20, 2"}, "His-MBP-Lin28TT [2]": {"biological_target": "T1, His-MBP-Lin28TT", "test": "fluorescence anisotropy; 500 mM NaCl; 50 uM ZnCl2; FA: 20 nM 5'-fluorescein RNA, 20 mM Tris-HCl pH 7.5, 50-750 mM NaCl (100 mM for the main miR-363 Kd), 10 mM beta-mercaptoethanol, 50 uM ZnCl2, 0.01% Tween 20, 2"}, "His-MBP-Lin28TT [3]": {"biological_target": "T1, His-MBP-Lin28TT", "test": "fluorescence anisotropy; 750 mM NaCl; 50 uM ZnCl2; FA: 20 nM 5'-fluorescein RNA, 20 mM Tris-HCl pH 7.5, 50-750 mM NaCl (100 mM for the main miR-363 Kd), 10 mM beta-mercaptoethanol, 50 uM ZnCl2, 0.01% Tween 20, 2"}, "His-MBP-Lin28TT [4]": {"biological_target": "T1, His-MBP-Lin28TT", "test": "fluorescence anisotropy; 250 mM NaCl; 50 uM ZnCl2; FA: 20 nM 5'-fluorescein RNA, 20 mM Tris-HCl pH 7.5, 50-750 mM NaCl (100 mM for the main miR-363 Kd), 10 mM beta-mercaptoethanol, 50 uM ZnCl2, 0.01% Tween 20, 2"}, "His-MBP-Lin28TT [5]": {"biological_target": "T1, His-MBP-Lin28TT", "test": "fluorescence anisotropy; 50 uM ZnCl2; FA: 20 nM 5'-fluorescein RNA, 20 mM Tris-HCl pH 7.5, 50-750 mM NaCl (100 mM for the main miR-363 Kd), 10 mM beta-mercaptoethanol, 50 uM ZnCl2, 0.01% Tween 20, 2"}},
  "data": [
    {"binder": "B1", "values": [
      {"measurement": "Kd", "setting": "His-MBP-Lin28TT [1]", "result": "0.0166 ± 0.0019", "unit": "µM"},
      {"measurement": "Kd", "setting": "His-MBP-Lin28TT [2]", "result": "0.008 ± 0.0008", "unit": "µM"},
      {"measurement": "Kd", "setting": "His-MBP-Lin28TT [3]", "result": "0.0124 ± 0.0011", "unit": "µM"},
      {"measurement": "Kd", "setting": "His-MBP-Lin28TT [4]", "result": "0.0066 ± 0.0009", "unit": "µM"}
    ]},
    {"binder": "B2", "values": [
      {"measurement": "Kd", "setting": "His-MBP-Lin28TT [5]", "result": "0.0541 ± 0.0042", "unit": "µM"}
    ]}
  ]
}
